Sequences and labels used below:
B1: canine IgG.B Fc (CH2-CH3) variant E380A (Fc fusion)
chain: APEMLGGPSVFIFPPKPKDTLLIARTPEVTCVVVDLDPEDPEVQISWFVDGKQMQTAKTQPREEQFNGTYRVVSVLPIGHQDWLKGKQFTCKVNNKALPSPIERTISKARGQAHQPSVYVLPPSREELSKNTVSLTCLIKDFFPPDIDVAWQSNGQQEPESKYRTTPPQLDEDGSYFLYSKLSVDKSRWQRGDTFICAVMHEALHNHYTQESLSHSPGK
B2: canine IgG.B Fc (CH2-CH3) variant Y436A (Fc fusion)
chain: B1 chain with A150E, Y208A
B3: canine IgG.B Fc (CH2-CH3) variant A254S (Fc fusion)
chain: B1 chain with A24S, A150E
B4: canine IgG.B Fc (CH2-CH3) variant D378A (Fc fusion)
chain: B1 chain with D148A, A150E
B5: canine IgG.B Fc (CH2-CH3) variant T250A (Fc fusion)
chain: B1 chain with T20A, A150E
B6: canine IgG.B Fc (CH2-CH3) variant G309A (Fc fusion)
chain: B1 chain with G79A, A150E
B7: canine IgG.B Fc (CH2-CH3) variant K315A (Fc fusion)
chain: B1 chain with K85A, A150E
B8: canine IgG.B Fc (CH2-CH3) variant P307A (Fc fusion)
chain: B1 chain with P77A, A150E
B9: canine IgG.B Fc (CH2-CH3) variant H433A (Fc fusion)
chain: B1 chain with A150E, H205A
B10: canine IgG.B Fc (CH2-CH3) variant M428A (Fc fusion)
chain: B1 chain with A150E, M200A
B11: canine IgG.B Fc (CH2-CH3) variant I308A (Fc fusion)
chain: B1 chain with I78A, A150E
B12: canine IgG.B Fc (CH2-CH3) variant Q285A (Fc fusion)
chain: B1 chain with Q55A, A150E
B13: canine IgG.B Fc (CH2-CH3) variant T286A (Fc fusion)
chain: B1 chain with T56A, A150E
B14: canine IgG.B Fc (CH2-CH3) variant Q311A (Fc fusion)
chain: B1 chain with Q81A, A150E
B15: canine IgG.B Fc (CH2-CH3) variant T256A (Fc fusion)
chain: B1 chain with T26A, A150E
B16: canine IgG.B Fc (CH2-CH3) variant L252A (Fc fusion)
chain: B1 chain with L22A, A150E
B17: canine IgG.B Fc (CH2-CH3) variant N434A (Fc fusion)
chain: B1 chain with A150E, N206A
B18: canine IgG.B Fc (CH2-CH3) variant N434S (Fc fusion)
chain: B1 chain with A150E, N206S
B19: canine IgG.B Fc (CH2-CH3) variant N434R (Fc fusion)
chain: B1 chain with A150E, N206R
B20: canine IgG.B Fc (CH2-CH3) variant N434W (Fc fusion)
chain: B1 chain with A150E, N206W
B21: canine IgG.B Fc (CH2-CH3) variant N434Y (Fc fusion)
chain: B1 chain with A150E, N206Y
B22: canine IgG.B Fc (CH2-CH3) variant T250Q (Fc fusion)
chain: B1 chain with T20Q, A150E
B23: canine IgG.B Fc (CH2-CH3) variant T250E (Fc fusion)
chain: B1 chain with T20E, A150E
B24: canine IgG.B Fc (CH2-CH3) variant Q311V (Fc fusion)
chain: B1 chain with Q81V, A150E
B25: canine IgG.B Fc (CH2-CH3) variant A254T (Fc fusion)
chain: B1 chain with A24T, A150E
B26: canine IgG.B Fc (CH2-CH3) variant G309P (Fc fusion)
chain: B1 chain with G79P, A150E
B27: canine IgG.B Fc (CH2-CH3) variant L252Y (Fc fusion)
chain: B1 chain with L22Y, A150E
B28: canine IgG.B Fc (CH2-CH3) variant L252M (Fc fusion)
chain: B1 chain with L22M, A150E
B29: canine IgG.B Fc (CH2-CH3) variant N434H (Fc fusion)
chain: B1 chain with A150E, N206H
B30: canine IgG.B Fc (CH2-CH3) YTE variant (L252Y/A254T/T256E) (Fc fusion)
chain: B1 chain with L22Y, A24T, T26E, A150E
B31: canine IgG.B Fc (CH2-CH3) variant D378V (Fc fusion)
chain: B1 chain with D148V, A150E

Usually Kd stands for the equilibrium constant for the complex coming apart. What is called koff is a measure of how fast the partners let go of each other. Read a high koff as fast dissociation. Usually kon stands for the second-order rate constant of association.

Changes are numbered by the printed parent chain. Names may count otherwise. “And” between values parts separate entries of the source, which are not always exact repeats. Identical values can stand only once.

The target in the first assay is T1, canine FcRn (UniProtKB-E2ROL6 [FcRn] and UniProtKB-E2RN10 [canine beta-2-microglobulin]) (canine).
T1 construct: Soluble analyte injected in SPR
The assay is described as follows: SPR Biacore 8K, pH 5.5, Fc captured on BSA via SASA tag, FcRn 400 nM. Background: Surface plasmon resonance follows binding to a sensor surface in real time, without labels.
Take B1: the Kd is 618 nM and 747 nM; the koff is 0.369 s⁻¹ and 0.18 s⁻¹; the kon is 598000 M⁻¹ s⁻¹ and 241000 M⁻¹ s⁻¹.

For the molecule B2, the Kd was 393 nM and 876 nM; the koff is 0.407 s⁻¹ and 0.213 s⁻¹.

B3: the Kd is 340 nM and 317 nM.

In the case of B4, the Kd was 673 nM and 592 nM; the koff was 0.183 s⁻¹ and 0.181 s⁻¹; the kon is 272000 M⁻¹ s⁻¹ and 306000 M⁻¹ s⁻¹.

In the case of B5, the Kd is 335 nM and 328 nM.

Turning to B6, the Kd is 245 nM and 294 nM.

Regarding B7, the equilibrium dissociation constant (Kd) is 422 nM and 548 nM.

Regarding B8, the Kd was 325 nM and 338 nM.

As to B9, the Kd was 266 nM and 359 nM; the koff was 0.229 s⁻¹ and 0.0997 s⁻¹.

As for B10, the Kd is 723 nM and 1670 nM; the kon was 234000 M⁻¹ s⁻¹ and 318000 M⁻¹ s⁻¹.

Turning to B11, the Kd was 472 nM and 563 nM; the koff was 0.169 s⁻¹ and 0.194 s⁻¹; the kon was 357000 M⁻¹ s⁻¹ and 345000 M⁻¹ s⁻¹.

As for B12, the Kd is 341 nM and 257 nM.

B13: the Kd was 464 nM and 569 nM; the koff was 0.196 s⁻¹ and 0.304 s⁻¹; the kon was 422000 M⁻¹ s⁻¹ and 533000 M⁻¹ s⁻¹.

Turning to B14, the Kd is 368 nM and 370 nM; the koff was 0.894 s⁻¹ and 0.496 s⁻¹; the kon was 2.43e+06 M⁻¹ s⁻¹ and 1.34e+06 M⁻¹ s⁻¹.

As for B15, the Kd is 447 nM and 298 nM.

For the molecule B16, the Kd is 292 nM and 240 nM.

In the case of B17, the Kd was 457 nM and 494 nM; the koff is 0.237 s⁻¹ and 0.477 s⁻¹; the kon was 518000 M⁻¹ s⁻¹ and 966000 M⁻¹ s⁻¹.

A further assay addresses T1, canine FcRn (UniProtKB-E2ROL6 [FcRn] …). The assay is described as follows: SPR Biacore 8K, pH 5.5, Fc captured on BSA via SASA tag, FcRn 200 nM.
On to B18, for which the Kd is 924 nM and 1050 nM; the koff was 0.207 s⁻¹ and 0.209 s⁻¹; the kon was 225000 M⁻¹ s⁻¹ and 199000 M⁻¹ s⁻¹.

Consider B19, for which the Kd is 107 nM and 159 nM; the koff is 0.0524 s⁻¹ and 0.0633 s⁻¹; the kon is 488000 M⁻¹ s⁻¹ and 399000 M⁻¹ s⁻¹.

With B20, the Kd was 40.4 nM and 75.7 nM.

B21 registered a Kd of 15.9 nM, a koff of 0.00968 s⁻¹ and a kon of 607000 M⁻¹ s⁻¹.

With B17, the Kd was 573 nM and 629 nM; the koff was 0.156 s⁻¹ and 0.164 s⁻¹; the kon is 272000 M⁻¹ s⁻¹ and 261000 M⁻¹ s⁻¹.

The target is the same in the next assay. The assay is described as above. The source holds these as a separate data set.
With B1, the Kd was 1320 nM and 1570 nM; the koff is 0.223 s⁻¹ and 0.239 s⁻¹; the kon is 168000 M⁻¹ s⁻¹ and 152000 M⁻¹ s⁻¹.

For another assay the target is unchanged. The description is as above. The source holds these as a separate data set.
Regarding B22, the Kd is 2590 nM and 2840 nM; the koff was 0.258 s⁻¹ and 0.268 s⁻¹; the kon was 99600 M⁻¹ s⁻¹ and 94300 M⁻¹ s⁻¹.

On to B23, for which the Kd is 2480 nM and 1660 nM; the koff is 0.284 s⁻¹ and 0.287 s⁻¹; the kon was 114000 M⁻¹ s⁻¹ and 172000 M⁻¹ s⁻¹.

The next assay shares this target. The description is as above. This is another data set of the same source.
For the molecule B24, the Kd was 372 nM and 439 nM; the koff was 0.566 s⁻¹ and 0.696 s⁻¹; the kon is 1.52e+06 M⁻¹ s⁻¹ and 1.59e+06 M⁻¹ s⁻¹.

A further assay has the same target. The assay is described as above. The source holds these as a separate data set.
Regarding B25, the Kd is 2290 nM and 1340 nM; the koff is 0.375 s⁻¹ and 0.433 s⁻¹; the kon is 163000 M⁻¹ s⁻¹ and 323000 M⁻¹ s⁻¹.

For another assay the target is unchanged. The assay is described as above. This is another data set of the same source.
Consider B26, for which the Kd is 635 nM and 434 nM and 637 nM and 718 nM; the koff was 0.239 s⁻¹ and 0.242 s⁻¹ and 0.132 s⁻¹ and 0.145 s⁻¹; the kon was 377000 M⁻¹ s⁻¹ and 558000 M⁻¹ s⁻¹ and 207000 M⁻¹ s⁻¹ and 202000 M⁻¹ s⁻¹.

For a further assay the target is unchanged. The assay is described as above. The source holds these as a separate data set.
On to B27, for which the Kd is 98.7 nM and 114 nM; the koff is 0.0397 s⁻¹ and 0.041 s⁻¹; the kon is 402000 M⁻¹ s⁻¹ and 358000 M⁻¹ s⁻¹.

B28: the Kd is 869 nM and 774 nM; the koff was 0.168 s⁻¹ and 0.169 s⁻¹; the kon was 193000 M⁻¹ s⁻¹ and 218000 M⁻¹ s⁻¹.

The next assay shares this target. The assay is described as follows: SPR Biacore 8K, pH 5.5, Fc captured on BSA via SASA tag, FcRn 100-800 nM.
With B29, binding was characterised by a dissociation constant (Kd) of 247 nM, the koff was 0.102 s⁻¹ and the kon was 411000 M⁻¹ s⁻¹.

Turning to B27, the Kd is 173 nM, the koff came out at 0.0476 s⁻¹ and the kon stood at 275000 M⁻¹ s⁻¹.

In turn, B19 registered a Kd of 182 nM, a koff of 0.0801 s⁻¹ and a kon of 440000 M⁻¹ s⁻¹.

B20 registered a Kd of 101 nM, a koff of 0.045 s⁻¹ and a kon of 446000 M⁻¹ s⁻¹.

Regarding B21, the Kd is 29.1 nM, the koff turned out to be 0.0151 s⁻¹ and the kon worked out at 520000 M⁻¹ s⁻¹.

Take B30: the Kd amounted to 184 nM, the koff was 0.046 s⁻¹ and the kon was 250000 M⁻¹ s⁻¹.

The target is the same in a further assay. Briefly: SPR Biacore 8K, pH 5.5, Fc captured on BSA via SASA tag, FcRn 200 nM. This is another data set of the same source.
Consider B31, for which the Kd was 693 nM and 873 nM; the koff was 0.159 s⁻¹ and 0.16 s⁻¹; the kon was 229000 M⁻¹ s⁻¹ and 184000 M⁻¹ s⁻¹.

These data come from patent US20200216536A1 (published 2020).
